{
  "source": "patent US20180066058A1",
  "about": "(published 2018)",
  "binders": {"B1": {"name": "STIM002 Fab (Fab, V domains shown)", "VH": "QVQLVQSGGEVKKPGASVKVSCKASGYTFTSYGFSWVRQAPGQGLEWMGWISAYNGNTNYAQKLQGRVTMTTDTSTSTAYMELRSLRSDDTAVYYCARSTYFYGSGTLYGMDVWGQGTTVTVSS", "VL": "DIVMTQSPLSLPVTPGEPASISCRSSQSLLHSDGYNYLDWYLQKPGQSPQLLIYLGSTRASGFPDRFSGSGSGTDFTLKISRVEAEDVGVYYCMQALQTPLSFGQGTKLEIK", "notes": "Recombinantly expressed purified Fab"}, "B2": {"name": "STIM003 human IgG1 (antibody, V domains shown)", "VH": "EVQLVESGGGVVRPGGSLRLSCVASGVTFDDYGMSWVRQAPGKGLEWVSGINWNGGDTDYSDSVKGRFTISRDNAKNSLYLQMNSLRAEDTALYYCARDFYGSGSYYHVPFDYWGQGILVTVSS", "VL": "EIVLTQSPGTLSLSPGERATLSCRASQSVSRSYLAWYQQKRGQAPRLLIYGASSRATGIPDRFSGDGSGTDFTLSISRLEPEDFAVYYCHQYDMSPFTFGPGTKVDIKR", "notes": "Human IgG1 format; Conjugated with AF647 in the direct staining assays, coupled to beads or plates in the MJ cell assays; also called STIM003 (hIgG1); STIM003 hIgG1"}, "B3": {"name": "STIM004 human IgG4.PE (antibody, V domains shown)", "VH": "B2 VH with V23A, V27L, A40V, G56D, D57N, S61A, F100Y, H108N, I118T", "VL": "not shown", "notes": "Human IgG4.PE (null-effector) format"}, "B4": {"name": "STIM006 human IgG4.PE (antibody, V domains shown)", "VH": "QVQLVESGGGLVKPGGSLRLSCAASGFTFSDYFMSWIRQAPGKGLEWISYISSSGSTIYYADSVRGRFTISRDNAKYSLYLQMNSLRSEDTAVYYCARDHYDGSGIYPLYYYYGLDVWGQGTTVTVSS", "VL": "not shown"}},
  "key": {"[1]": {"biological_target": "T1, Human ICOS extracellular domain fused to human Fc (human, UniProt Q9Y6W8 21-140)", "T1 construct": "Dimeric protein made in house from NCBI NP_036224.1; also called hICOS; hICOS Fc; not shown: human Fc region", "T1 sequence": "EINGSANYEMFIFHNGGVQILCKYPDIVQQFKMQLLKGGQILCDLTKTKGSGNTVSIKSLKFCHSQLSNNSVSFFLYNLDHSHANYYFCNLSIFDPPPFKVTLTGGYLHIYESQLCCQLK", "experiment": "SPR (ProteOn XPR36), human ICOS ECD-Fc captured, Fab analyte, pH 5.5, 37 C; poor fit to 1:1 model", "protocol": "(§1) In addition, a comparison was performed of antibody:antigen binding affinity at different pH values. As before, the dimeric human ICOS protein, presented as the extracellular domain of ICOS fused to a human Fc region, was captured on the anti-human Fc capture surface created using the 3 antibody cocktail, immobilised on the GLC biosensor chip by primary amine coupling. SPR analysis of recombinantly expressed anti-ICOS Fabs was carried out on the ProteOn XPR36 Array system (Biorad). The Fab fragments were used as analyte to generate binding sensorgrams, which were double referenced with a buffer injection (i.e., 0 nM). The subsequent referenced sensorgrams were fitted to the 1:1 model inherent to the ProteOn analysis software. […] Data were fitted to the 1:1 model."}, "[2]": {"biological_target": "T1, Human ICOS extracellular domain fused …", "experiment": "SPR (ProteOn XPR36), human ICOS ECD-Fc captured, Fab analyte, pH 7.4, 37 C; poor fit to 1:1 model", "protocol": "as §1"}, "[3]": {"biological_target": "T1, Human ICOS extracellular domain fused …", "experiment": "SPR (ProteOn XPR36), Fc-tagged ICOS captured on anti-human IgG, Fab analyte, 25 C", "protocol": "Fab affinities of the ICOS leads were generated by SPR using the ProteOn XPR3 6 (BioRad). An anti-human IgG capture surface was created on a GLC biosensor chip by primary amine coupling, immobilising three anti-human IgG antibodies (Jackson Labs 109-005-008, 109-006-008 and 309-006-008). […] Binding sensorgrams were double referenced using a buffer injection (i.e. 0 nM), and the data was fitted to the 1:1 model inherent to the ProteOn XPR36 analysis software. The assay was run at 25° C. and using HBS-EP as running buffer."}, "Human ICOS on cells [4]": {"biological_target": "T2, Human ICOS on cells (human, UniProt Q9Y6W8 21-199)", "T2 construct": "the cell is named under assay; also called hICOS; human ICOS expressed on CHO-S cells", "T2 sequence": "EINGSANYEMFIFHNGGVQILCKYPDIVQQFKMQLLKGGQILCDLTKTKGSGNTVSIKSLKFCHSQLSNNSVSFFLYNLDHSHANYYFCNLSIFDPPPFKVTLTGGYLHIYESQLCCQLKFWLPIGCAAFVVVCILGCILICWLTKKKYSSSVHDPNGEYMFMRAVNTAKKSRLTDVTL", "experiment": "flow cytometry on activated primary human pan T cells; naked hIgG1 detected with AF647 goat anti-human Fc", "protocol": "(§2) Pan T-cells (CD3 cells) were isolated and cultured for 3 days with CD3/CD28 dynabeads (Thermofisher) to induce ICOS expression on their surface. […] Stained cells were ran on the Attune and staining intensity was presented as Mean of fluorescence intensity (MFI). EC50 was determined using GraphPad Prism."}, "Human ICOS on cells [5]": {"biological_target": "T2, Human ICOS on cells", "experiment": "cell-based or functional assay"}, "[6]": {"biological_target": "T3, mouse ICOS-mFc (Chimerigen) (mouse, UniProt Q9WVS0 21-141, limits assumed)", "T3 construct": "also called mouse ICOS receptor; mouse ICOS Receptor; not shown: mouse Fc of the bought construct", "T3 sequence": "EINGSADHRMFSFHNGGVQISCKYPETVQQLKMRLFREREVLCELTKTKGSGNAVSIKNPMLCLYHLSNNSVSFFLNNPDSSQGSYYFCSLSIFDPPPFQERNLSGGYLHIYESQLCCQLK", "experiment": "HTRF neutralisation of Alexa 647 mouse B7-H2 binding to mouse ICOS-mFc; human IgG1; mean, n = 3", "protocol": "(§3) 5 μl of ICOS receptor (human ICOS-mFc, 20 nM, 5 nM final or mouse ICOS-mFc 4 nM, 1 nM final (Chimerigen)) was added to required wells. Plate was incubated for 1 hr at room temperature (RT).\n(§4) Finally, 5 μl of anti-mouse IgG donor mAb (Southern Biotech) labelled with europium cryptate (Cis Bio), 40 nM, 10 nM final was added to each well and the assay was left in the dark at RT to incubate for a further 2 hours. After incubation, assay was read on Envision plate reader (Perkin Elmer) using a standard HTRF protocol. […] Titration curves and IC50 values [M] were plotted using Graphpad (Prism). IC50 values were calculated by first transforming the data using equation X=Log(X). The transformed data was then fitted using nonlinear regression, using fitting algorithm, log (inhibitor) vs. response—variable slope (four parameters)."}, "Human ICOS on cells [7]": {"biological_target": "T2, Human ICOS on cells", "experiment": "cell-based or functional assay", "remark": "listed apart in the source"}, "[8]": {"biological_target": "T4, Cynomolgus ICOS on activated cynomolgus T cells (cynomolgus, UniProt Q9Y6W8 21-195 (human entry))", "T4 construct": "also called NHP ICOS", "T4 chain": "T2 sequence with T54K, H81R, A129T, L136F, S152T, D176G, V177T, L179P", "experiment": "flow cytometry, AF647 pre-labelled hIgG1 on activated cynomolgus pan T cells, donor 2", "protocol": "(§5) PBMC from whole blood of 2 Mauritian cynomolgus macaques (Wickham Laboratories) were isolated by gradient centrifugation and cultured for 3 days with CD2/CD3/CD28 MACSiBeads (Miltenyi) to induce ICOS expression on their surface. […] Cells were also labelled with V450-CD3 to assess staining on T-cell subsets. Stained cells were run on Attune (Thermofisher) and staining intensity was presented as mean fluorescence intensity (MFI). EC50 was determined using GraphPad Prism."}, "[9]": {"biological_target": "T4, Cynomolgus ICOS on activated cynomolgus …", "experiment": "flow cytometry, AF647 pre-labelled hIgG1 on activated cynomolgus pan T cells, donor 1", "protocol": "as §5"}, "Human ICOS on cells [10]": {"biological_target": "T2, Human ICOS on cells", "experiment": "flow cytometry on activated primary human pan T cells; indirect binding assay; reference STIM001 hIgG1", "protocol": "as §2"}, "Human ICOS on cells [11]": {"biological_target": "T2, Human ICOS on cells", "experiment": "flow cytometry on activated human pan T cells (row Human), second donor column"}, "[12]": {"biological_target": "T5, human ICOS-mFc (Chimerigen) (human, UniProt Q9Y6W8 21-140)", "T5 construct": "also called human ICOS receptor; human ICOS Receptor; not shown: mouse Fc of the bought construct", "T5 sequence": "T1 sequence", "experiment": "HTRF neutralisation of Alexa 647 human B7-H2 binding to human ICOS-mFc; human IgG1; mean, n = 4", "protocol": "as §3, §4"}, "Human ICOS on cells [13]": {"biological_target": "T2, Human ICOS on cells", "experiment": "flow cytometry on activated human pan T cells (row Human), first donor column"}, "[14]": {"biological_target": "T5, human ICOS-mFc (Chimerigen)", "experiment": "HTRF neutralisation of Alexa 647 human B7-H2 binding to human ICOS-mFc; human IgG4.PE; mean, n = 3", "protocol": "as §3, §4"}, "[15]": {"biological_target": "T3, mouse ICOS-mFc (Chimerigen)", "experiment": "HTRF neutralisation of Alexa 647 mouse B7-H2 binding to mouse ICOS-mFc; human IgG4.PE; mean, n = 3", "protocol": "as §3, §4"}, "[16]": {"biological_target": "T5, human ICOS-mFc (Chimerigen)", "experiment": "HTRF neutralisation of Alexa 647 human B7-H2 binding to human ICOS-mFc; human IgG4.PE table; n = 1", "protocol": "as §3, §4"}},
  "note": "Changes are numbered by the printed parent chain.",
  "data": [
    {"binder": "B1", "values": [
      {"measurement": "Kd", "setting": "[1]", "result": 4.17, "unit": "nM"},
      {"measurement": "Kd", "setting": "[2]", "result": 223, "unit": "nM"},
      {"measurement": "Kd", "setting": "[3]", "result": 1070, "unit": "nM"}
    ]},
    {"binder": "B2", "values": [
      {"measurement": "EC50", "setting": "Human ICOS on cells [4]", "result": 0.148, "unit": "nM"},
      {"measurement": "EC50 (Molar unit), NK primary cell ADCC assay on ICOS-transfected CCRF-CEM cells, 4 hour time point, Donor 4", "setting": "Human ICOS on cells [5]", "result": "~0.003", "unit": "nM"},
      {"measurement": "EC50 (Molar unit), NK primary cell ADCC assay on ICOS-transfected CCRF-CEM cells, 4 hour time point, Donor 5", "setting": "Human ICOS on cells [5]", "result": 0.000895, "unit": "nM"},
      {"measurement": "EC50 (Molar unit), NK primary cell ADCC assay on ICOS-transfected CCRF-CEM cells, 4 hour time point, Donor 6", "setting": "Human ICOS on cells [5]", "result": 0.00103, "unit": "nM"},
      {"measurement": "IC50", "setting": "[6]", "result": 0.1, "unit": "nM"},
      {"measurement": "EC50 (Molar unit), NK primary cell ADCC assay on MJ cells, 2 hour time point, Donor 1", "setting": "Human ICOS on cells [7]", "result": 0.00233, "unit": "nM"},
      {"measurement": "EC50 (Molar unit), NK primary cell ADCC assay on MJ cells, 2 hour time point, Donor 2", "setting": "Human ICOS on cells [7]", "result": 0.0358, "unit": "nM"},
      {"measurement": "EC50 (Molar unit), NK primary cell ADCC assay on MJ cells, 2 hour time point, Donor 3", "setting": "Human ICOS on cells [7]", "result": 0.101, "unit": "nM"},
      {"measurement": "EC50", "setting": "[8]", "result": 4.83, "unit": "nM"},
      {"measurement": "EC50", "setting": "[9]", "result": 4.58, "unit": "nM"},
      {"measurement": "fold lower EC50 than STIM001", "setting": "Human ICOS on cells [10]", "result": "~100", "unit": "fold"},
      {"measurement": "EC50", "setting": "Human ICOS on cells [11]", "result": 0.895, "unit": "nM"},
      {"measurement": "IC50", "setting": "[12]", "result": 1.3, "unit": "nM"},
      {"measurement": "EC50", "setting": "Human ICOS on cells [13]", "result": 2.29, "unit": "nM"}
    ]},
    {"binder": "B3", "values": [
      {"measurement": "IC50", "setting": "[14]", "result": 161, "unit": "nM"},
      {"measurement": "IC50", "setting": "[15]", "result": 30, "unit": "nM"}
    ]},
    {"binder": "B4", "values": [
      {"measurement": "IC50", "setting": "[16]", "result": 0.8, "unit": "nM"}
    ]}
  ]
}
